Patent publication US20130236470A1

Key:
[1] = target: HLA-DR expressed by L428 cells (human); test: flow cytometry on L428 cells, antibody 3.9 ng/mL
[2] = target: HLA-DR expressed by L428 cells (human); test: flow cytometry on L428 cells, antibody 7.8 ng/mL
[3] = target: HLA-DR expressed by L428 cells (human); test: flow cytometry on L428 cells, antibody 0.98 ng/mL
[4] = target: HLA-DR expressed by L428 cells (human); test: flow cytometry on L428 cells, antibody 1.95 ng/mL
[5] = target: HLA-DR expressed by L428 cells (human); test: flow cytometry on L428 cells, antibody 15.6 ng/mL
[6] = target: HLA-DR expressed by L428 cells (human); test: flow cytometry on L428 cells, antibody 31.2 ng/mL
[7] = target: HLA-DR expressed by L428 cells (human); test: flow cytometry on L428 cells, antibody 62.5 ng/mL
[8] = target: HLA-DR expressed by L428 cells (human); test: flow cytometry on L428 cells, antibody 125.0 ng/mL
[9] = target: HLA-DR expressed by L428 cells (human); test: flow cytometry on L428 cells, antibody 250.0 ng/mL
[10] = target: HLA-DR expressed by L428 cells (human); test: flow cytometry on L428 cells, antibody 0.0 ng/mL (background)

Substance: commercially available antibody (clone name: LN3) known to bind to HLA-DR
- Ability to bind (average strength) [1]: 339
- Ability to bind (average strength) [2]: 430
- Ability to bind (average strength) [3]: 181
- Ability to bind (average strength) [4]: 230
- Ability to bind (average strength) [5]: 694
- Ability to bind (average strength) [6]: 928
- Ability to bind (average strength) [7]: 1610
- Ability to bind (average strength) [8]: 2420
- Ability to bind (average strength) [9]: 3270
- Ability to bind (average strength) [10]: 129
